Measured values published in paper PMC11332147, “Repression of Acinetobacter baumannii DNA damage response requires DdrR-assisted binding of UmuDAb dimers to atypical SOS box”.
Residue numbers refer to the chain shown, from its start.

What was measured:
UmuDAb N100D = UmuDAb N100D (Acinetobacter baumannii ATCC 17978 JH, UniProt A0A0D5YJU0 1-203, N100D); assay: EMSA; Bmax < 0.90; […] (10x = 100 mM Tris, 500 mM KCl, 10 mM DTT, […]; details: protein: recombinant; chain copies: 2; label: 5' IRDye700 on both strands; blunt
UmuDAb G124D = UmuDAb G124D (Acinetobacter baumannii ATCC 17978 JH, UniProt A0A0D5YJU0 1-203, G124D); assay: as above; details: protein: recombinant; chain copies: 2; label: 5' IRDye700 on both strands; blunt
UmuDAb HTH1 = UmuDAb HTH1 (Acinetobacter baumannii ATCC 17978 JH, UniProt A0A0D5YJU0 1-203, E24K); assay: EMSA; Hill 6.1; 94% bound; […] (10x = 100 mM Tris, 500 mM KCl, 10 mM DTT, […]; details: protein: recombinant; chain copies: 2; label: 5' IRDye700 on both strands; blunt
UmuDAb HTH2 = UmuDAb HTH2 (Acinetobacter baumannii ATCC 17978 JH, UniProt A0A0D5YJU0 1-203, K40P;N41P); assay: EMSA; Hill 10.8; 78% bound; […] (10x = 100 mM Tris, 500 mM KCl, 10 mM DTT, […]; details: protein: recombinant; chain copies: 2; label: 5' IRDye700 on both strands; blunt
UmuDAb R201X = UmuDAb R201X (Acinetobacter baumannii ATCC 17978 JH, UniProt A0A0D5YJU0 1-200); assay: EMSA; 60-70% bound above 1 uM; […] (10x = 100 mM Tris, 500 mM KCl, 10 mM DTT, […]; details: protein: recombinant; chain copies: 2; label: 5' IRDye700 on both strands; blunt
UmuDAb A83Y = UmuDAb A83Y (Acinetobacter baumannii ATCC 17978 JH, UniProt A0A0D5YJU0 1-203, A83Y); assay: EMSA; Hill 4.65; legend gives 69 nM; […] (10x = 100 mM Tris, 500 mM KCl, 10 mM DTT, […]; details: protein: recombinant; chain copies: 2; label: 5' IRDye700 on both strands; blunt
UmuDAb W192X = UmuDAb W192X (Acinetobacter baumannii ATCC 17978 JH, UniProt A0A0D5YJU0 1-191); assay: EMSA; Hill 6.1; 60-70% bound above 1 uM; […] (10x = 100 mM Tris, 500 mM KCl, 10 mM DTT, […]; details: protein: recombinant; chain copies: 2; label: 5' IRDye700 on both strands; blunt
UmuDAb [1] = target: T1, UmuDAb (Acinetobacter baumannii ATCC 17978 JH, UniProt A0A0D5YJU0 1-203); assay: EMSA; Hill 4.9; EMSA: LI-COR Odyssey binding buffer (10x = 100 mM Tris, 500 mM KCl, 10 mM DTT, pH 7.5), 25 mM DTT, 1 ug/uL poly(dI-dC), 200 fmol probe per 20 uL, 20 min at room temperature; 5% TBE gel run at 4 C; details: protein: recombinant; chain copies: 2; label: 5' IRDye700 on both strands; blunt
T1 sequence: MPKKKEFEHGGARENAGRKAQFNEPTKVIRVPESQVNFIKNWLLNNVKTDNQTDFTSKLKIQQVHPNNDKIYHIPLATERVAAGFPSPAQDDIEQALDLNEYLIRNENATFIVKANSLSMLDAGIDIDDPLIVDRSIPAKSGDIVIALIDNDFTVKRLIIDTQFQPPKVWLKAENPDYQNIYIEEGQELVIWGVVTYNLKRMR

UmuDAb [2] = target: T1, UmuDAb; assay: competition; 100x competitor; not different from WT; […] (10x = 100 mM Tris, 500 mM KCl, 10 mM DTT, […]; details: protein: recombinant; chain copies: 2; blunt
UmuDAb [3] = target: T1, UmuDAb; assay: competition; 100x competitor; […] (10x = 100 mM Tris, 500 mM KCl, 10 mM DTT, […]; details: protein: recombinant; chain copies: 2; blunt
UmuDAb [4] = target: T1, UmuDAb; assay: competition; 100x competitor; also fails vs L2-labeled probe (Fig S3); […] (10x = 100 mM Tris, 500 mM KCl, 10 mM DTT, […]; details: protein: recombinant, chain copies: 2, blunt
UmuDAb [5] = target: T1, UmuDAb; assay: EMSA; no higher MW second band; […] (10x = 100 mM Tris, 500 mM KCl, 10 mM DTT, […]; details: protein: recombinant; chain copies: 2; blunt

B1: WT 37 bp UmuDAb operator probe (dsDNA)
DNA 1: TCGTCAACTTGAAAATGTAACTTTTTCAAGTTACATT
DNA 2: AATGTAACTTGAAAAAGTTACATTTTCAAGTTGACGA
Work on B1 yielded a Kd (UmuDAb N100D) of 306 nM, a Kd (UmuDAb G124D) of 390 nM and a Kd (UmuDAb HTH1) of 99 nM. For the same binder, the Kd (UmuDAb HTH2) was 114 nM, the Kd (UmuDAb R201X) was 353 nM and the Kd (UmuDAb A83Y) was 70 nM. The Kd (UmuDAb W192X) was 540 nM and the Kd (UmuDAb [1]) was 38.9 nM.

B2: L1 (dsDNA)
DNA 1: B1 DNA 1 with C27T, A28G
DNA 2: B1 DNA 2 with T10C, G11A
B2: binds (UmuDAb [2]).

B3: R1 (dsDNA)
DNA 1: B1 DNA 1 with T10C, G11A
DNA 2: B1 DNA 2 with C27T, A28G
B3: binds (UmuDAb [2]).

B4: R2 (dsDNA)
DNA 1: B1 DNA 1 with T26C, C27T, A28G, A29G
DNA 2: B1 DNA 2 with T9C, T10C, G11A, A12G
B4: binds (UmuDAb [2]).

B5: LR3 (dsDNA)
DNA 1: TCGTCAACCCAGAAATGTAACTTTTCTGGGTTACATT
DNA 2: AATGTAACCCAGAAAAGTTACATTTCTGGGTTGACGA
B5: no binding (UmuDAb [3]).

B6: C3 (dsDNA)
DNA 1: B1 DNA 1 with G17T, T18C, A20G, C21A
DNA 2: B1 DNA 2 with G17T, T18C, A20G, C21A
B6: no binding (UmuDAb [3]).

B7: L2C31-2 (dsDNA)
DNA 1: TCGTCAACCCAGAAATTCAACTTTTTCAAGTTACATT
DNA 2: AATGTAACTTGAAAAAGTTGAATTTCTGGGTTGACGA
B7: no binding (UmuDAb [4]).

B8: L2C34-5 (dsDNA)
DNA 1: B7 DNA 1 with T17G, C18T, A20G, C21A
DNA 2: B7 DNA 2 with G17A, G20A, A21C
B8: no binding (UmuDAb [4]; 2 mismatches in core as printed).

B9: L2 labeled probe (dsDNA)
DNA 1: B7 DNA 1 with T17G, C18T
DNA 2: B7 DNA 2 with G20A, A21C
For B9, the binding signal (UmuDAb [5]) was ~0.75 Kd ratio to WT probe.
